In patent publication US20040171000A1:

Biological target: human telomerase (active telomerase from HeLa cell nuclear extract; catalytic subunit hTERT) (human) (UniProt O14746)
Assay: cell-based or functional assay

Chain of human telomerase (active telomerase from HeLa cell nuclear extract; catalytic subunit hTERT) (human) (O14746 whole entry): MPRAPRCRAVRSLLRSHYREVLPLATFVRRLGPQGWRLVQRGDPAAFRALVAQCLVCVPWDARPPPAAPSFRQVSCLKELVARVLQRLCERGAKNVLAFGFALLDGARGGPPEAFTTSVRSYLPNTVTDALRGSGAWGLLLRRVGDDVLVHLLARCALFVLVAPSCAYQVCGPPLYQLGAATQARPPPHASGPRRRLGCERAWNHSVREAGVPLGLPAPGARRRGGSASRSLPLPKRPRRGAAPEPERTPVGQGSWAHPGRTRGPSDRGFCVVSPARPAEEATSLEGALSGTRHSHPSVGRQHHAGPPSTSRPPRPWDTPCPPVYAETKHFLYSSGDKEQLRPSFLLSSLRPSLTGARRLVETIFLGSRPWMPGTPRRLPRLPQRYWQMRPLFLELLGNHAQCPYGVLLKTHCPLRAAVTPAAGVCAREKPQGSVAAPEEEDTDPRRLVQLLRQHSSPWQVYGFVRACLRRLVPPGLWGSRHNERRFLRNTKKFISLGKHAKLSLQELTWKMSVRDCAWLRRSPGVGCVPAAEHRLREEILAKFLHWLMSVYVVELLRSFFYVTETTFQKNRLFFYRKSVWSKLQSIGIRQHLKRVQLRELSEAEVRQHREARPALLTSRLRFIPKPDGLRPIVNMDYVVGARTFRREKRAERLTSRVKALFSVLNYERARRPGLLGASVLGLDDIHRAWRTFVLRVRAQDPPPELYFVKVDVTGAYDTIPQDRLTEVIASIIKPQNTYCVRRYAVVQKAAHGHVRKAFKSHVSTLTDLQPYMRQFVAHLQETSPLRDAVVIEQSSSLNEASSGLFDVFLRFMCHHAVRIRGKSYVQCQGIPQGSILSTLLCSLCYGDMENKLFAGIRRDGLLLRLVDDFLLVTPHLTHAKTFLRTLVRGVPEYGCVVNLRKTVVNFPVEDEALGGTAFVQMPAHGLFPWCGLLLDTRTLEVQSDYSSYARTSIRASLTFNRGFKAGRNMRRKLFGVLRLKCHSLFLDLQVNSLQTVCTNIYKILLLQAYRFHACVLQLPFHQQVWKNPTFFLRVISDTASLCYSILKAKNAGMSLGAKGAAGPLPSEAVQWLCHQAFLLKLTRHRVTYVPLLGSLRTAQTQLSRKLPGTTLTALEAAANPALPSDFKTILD

## EST1-0732 (human EST1 protein of SEQ ID No 2) (from UniProt Q86US8 1-1419)
  telomerase activity immunoprecipitated by antibodies to SEQ ID No 7: 70%
